This sample holds only a part of the variants without activity.
How the values were obtained:
biotinyl-Phe-oxazolone = assay: self-aminoacylation, catalytic enhancement (BFO) (fold over background); higher = more active; k-Seq, kA / k0A0; sequences stand for … in GGGAAUGGAUCCACAUCUACGAAUUC…UUCACUGCAGACUUGACGAAGCUG
Procedure, shortened: (§1)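 Working in 50 μL HEPES/NaCl/KCl/MgCl2/CaCl2 buffer with 5% acetonitrile at pH 6.9–7.0, mutagenized RNA pools (0.43 μM; 21-nt variable region) were reacted with 2–1250 μM of each biotinyl-aminoacyl-oxazolone for 90 minutes at room temperature. Streptavidin capture followed, with quantification by triplicate qPCR and Illumina sequencing. Catalytic enhancement is reported as median kA over the uncatalyzed rate, the low-activity peak of a bimodal Gaussian fit to the data.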

biotinyl-Leu-oxazolone = assay: self-aminoacylation, catalytic enhancement (BLO) (fold over background); higher = more active; k-Seq, kA / k0A0; sequences stand for … in GGGAAUGGAUCCACAUCUACGAAUUC…UUCACUGCAGACUUGACGAAGCUG
Procedure, shortened: as §1

biotinyl-Trp-oxazolone = assay: self-aminoacylation, catalytic enhancement (BWO) (fold over background); higher = more active; k-Seq, kA / k0A0; sequences stand for … in GGGAAUGGAUCCACAUCUACGAAUUC…UUCACUGCAGACUUGACGAAGCUG
Procedure, shortened: as §1

biotinyl-Met-oxazolone = assay: self-aminoacylation, catalytic enhancement (BMO) (fold over background); higher = more active; k-Seq, kA / k0A0; sequences stand for … in GGGAAUGGAUCCACAUCUACGAAUUC…UUCACUGCAGACUUGACGAAGCUG
Procedure, shortened: as §1

Row | Sequence | self-aminoacylation (biotinyl-Phe-oxazolone) | self-aminoacylation (biotinyl-Leu-oxazolone) | self-aminoacylation (biotinyl-Trp-oxazolone) | self-aminoacylation (biotinyl-Met-oxazolone)
1 | CCACUUCAAACAAUCGGUCGG [Fam1A.1 aminoacylation ribozyme variant] | 99.5 | 2.54 | 33.2 | –
2 | AAGCUUGCUAAUAGUCGCAUG [Fam3.1 aminoacylation ribozyme variant] | 3.98 | 2.07 | – | –
3 | GUACUUCAAUCAAUCGGUCUG [Fam1A.1 aminoacylation ribozyme variant] | 21.9 | 2.06 | 19.4 | –
4 | CGACUUCAAUCAAUCGGUCUG [Fam1A.1 aminoacylation ribozyme variant] | 42.2 | 2.21 | 24.3 | –
5 | AUUCACCUGGGUCAUAGGGUG [Fam2.2 aminoacylation ribozyme variant] | 6.22 | 2.23 | – | –
6 | AUUCACCUAGGUCAUCUGGCG [Fam2.2 aminoacylation ribozyme variant] | – | 2.88 | – | –
7 | AUUCACCUAGGUCAGCGGUUG [Fam2.2 aminoacylation ribozyme variant] | 6.39 | – | – | 2.22
8 | AUUCACCUAGCUCAUCGGGGG [Fam2.2 aminoacylation ribozyme variant] | – | – | – | 2.42
9 | AUUCACAUAGGUCAUCGAGUG [Fam2.2 aminoacylation ribozyme variant] | 3.08 | 2.69 | 2.2 | –
10 | CGACACUUCACGCAAUCGGUC [Fam1B.1 aminoacylation ribozyme variant] | 4.13 | 2.15 | – | –
11 | CCGCACUUCAAGCAAUCGGUC [Fam1B.1 aminoacylation ribozyme variant] | 61.6 | 2.01 | 36.5 | –
12 | GAGUUUGCUAAUAGUCGCAGG [Fam3.1 aminoacylation ribozyme variant] | 6.69 | 2.11 | 3.34 | –
13 | CAACGCUUCAAGCAAUCGGUC [Fam1B.1 aminoacylation ribozyme variant] | 58.6 | 2.08 | 33.7 | –
14 | CGUCUUCAAACAAUCGGUCUG [Fam1A.1 aminoacylation ribozyme variant] | 79 | 2.22 | 33.5 | –
15 | AAGUUAGCUAAUAGUCGCGAG [Fam3.1 aminoacylation ribozyme variant] | 2.29 | 2.09 | 2.24 | –
16 | AUUCACCUAGCUCCUCGGGUG [Fam2.2 aminoacylation ribozyme variant] | 5.19 | 2.24 | – | –
17 | ACACGCUUCAAGCAAUCGGUC [Fam1B.1 aminoacylation ribozyme variant] | 63.7 | 2.68 | 38.8 | –
18 | AAGUUCGCUAAUAGUCGCAAC [Fam3.1 aminoacylation ribozyme variant] | 2.12 | – | 2.33 | 2.32
19 | GUACUUCAAACAAUCGGUCGG [Fam1A.1 aminoacylation ribozyme variant] | 37.8 | 2.3 | 15.8 | –

Row | Sequence | self-aminoacylation (biotinyl-Phe-oxazolone) | self-aminoacylation (biotinyl-Leu-oxazolone) | self-aminoacylation (biotinyl-Trp-oxazolone) | self-aminoacylation (biotinyl-Met-oxazolone)
20 | AACUUUGCUAAUAGUAGCAAG [Fam3.1 aminoacylation ribozyme variant] | 2.06 | – | 2.42 | 2.2
21 | CUACGUCAAACAAUCGGUGUG [Fam1A.1 aminoacylation ribozyme variant] | – | 2.02 | – | –
22 | CUACUUCAACCAAUCGGUCAG [Fam1A.1 aminoacylation ribozyme variant] | 6.18 | – | 3.33 | –
23 | ACACACUUCAAGCCAUCGGUC [Fam1B.1 aminoacylation ribozyme variant] | 2.41 | 2.11 | – | –
24 | UUACUUCAACCAAUCGGUCUG [Fam1A.1 aminoacylation ribozyme variant] | 16.2 | – | 11.2 | –
25 | AAGUAUGCUAAUAGUCGUAAG [Fam3.1 aminoacylation ribozyme variant] | 33.1 | – | 8.96 | –
26 | CCACACUUCAAAAAAUCGGUC [Fam1B.1 aminoacylation ribozyme variant] | 18.2 | – | 14.5 | –
27 | CUACUUCAAUCAAUCGGACUG [Fam1A.1 aminoacylation ribozyme variant] | 8.24 | – | 4.18 | –
28 | AUUACCCUGGCCGUCGAGUGA [Fam2.1 aminoacylation ribozyme variant] | 2.1 | – | 2.4 | –
29 | CCAAUCUUCAAGCAAUCGGUC [Fam1B.1 aminoacylation ribozyme variant] | 18.1 | – | 10.7 | –
30 | CCAGACUUCAAACAAUCGGUC [Fam1B.1 aminoacylation ribozyme variant] | 85.8 | 2.19 | 40.2 | –
31 | CUGCUUCAAUCAAUCGGUCUG [Fam1A.1 aminoacylation ribozyme variant] | 44.2 | – | 26.8 | –
32 | CCACACUUGAAGCAUUCGGUC [Fam1B.1 aminoacylation ribozyme variant] | 3.66 | – | 2.09 | –
33 | CUACUUCAAUCAAUCGGUCCG [Fam1A.1 aminoacylation ribozyme variant] | 6.48 | – | 4.75 | –
34 | CUCCUUCAAACAAUCGGGCUG [Fam1A.1 aminoacylation ribozyme variant] | 15.1 | – | 14.4 | –
35 | GUACUUCAAACAAUCAGUCUG [Fam1A.1 aminoacylation ribozyme variant] | 19.3 | – | 10.3 | –
36 | AGGGUUGCUAAUAGUCGCAAG [Fam3.1 aminoacylation ribozyme variant] | 4.28 | – | – | 2.18
37 | CGACUUCAAAUAAUCGGUCUG [Fam1A.1 aminoacylation ribozyme variant] | 16.2 | – | 14.6 | –
38 | AGGUAUGCUAAUAGUCGCAAG [Fam3.1 aminoacylation ribozyme variant] | 9.64 | – | 3.41 | –

Row | Sequence | self-aminoacylation (biotinyl-Phe-oxazolone) | self-aminoacylation (biotinyl-Leu-oxazolone) | self-aminoacylation (biotinyl-Trp-oxazolone) | self-aminoacylation (biotinyl-Met-oxazolone)
39 | AUUCACCUACGUCGUCGGGUG [Fam2.2 aminoacylation ribozyme variant] | 11.5 | 2.38 | – | –
40 | ACAUACUUCAAGCAAUCGGUC [Fam1B.1 aminoacylation ribozyme variant] | 10.3 | – | 5.65 | –
41 | AAGUAUGCUAAAAGUCGCAAG [Fam3.1 aminoacylation ribozyme variant] | 8.97 | – | 3.97 | –
42 | AUUCACCGAGGUCAUCAGGUG [Fam2.2 aminoacylation ribozyme variant] | 2.42 | 2.03 | – | –
43 | AAGCUGGCUAAUAGUCGCAAG [Fam3.1 aminoacylation ribozyme variant] | 3.61 | 2.68 | 2.08 | –
44 | CUACUUCAACCAAUCGGUCUA [Fam1A.1 aminoacylation ribozyme variant] | 11.9 | – | 7 | –
45 | CGACCUCAAACAAUCGGUCUG [Fam1A.1 aminoacylation ribozyme variant] | 3.54 | – | 4.64 | –
46 | CCCCACUUCAAGUAAUCGGUC [Fam1B.1 aminoacylation ribozyme variant] | 15.4 | 2.08 | 14.2 | –
47 | CCACCUCAAACAAUCGGUCUG [Fam1A.1 aminoacylation ribozyme variant] | 4.25 | – | 4.25 | –
48 | ACUCACCUAGGUCAUCGGGUC [Fam2.2 aminoacylation ribozyme variant] | 7.01 | – | – | 2.24
49 | CUACUUCAAUCAAUCGGUCUC [Fam1A.1 aminoacylation ribozyme variant] | 25.9 | – | 14.9 | –
50 | UAACACUUCAAGCAAUCGGUC [Fam1B.1 aminoacylation ribozyme variant] | 25.6 | – | 13.3 | –
51 | CUCAUUCAAACAAUCGGUCUG [Fam1A.1 aminoacylation ribozyme variant] | 11.7 | – | 7.42 | –
52 | AAACACUUCAAGCAAUCGGUC [Fam1B.1 aminoacylation ribozyme variant] | 18 | – | 11.9 | –
53 | CCACAAUUCAAUCAAUCGGUC [Fam1B.1 aminoacylation ribozyme variant] | 10.8 | – | 5.08 | –
54 | CUAGUUCAAACAAUCGGUCGG [Fam1A.1 aminoacylation ribozyme variant] | 4.12 | – | 2.94 | –
55 | CUACUUCAAAUAAUCGGUCUC [Fam1A.1 aminoacylation ribozyme variant] | 15.6 | – | 7.99 | –
56 | AAGUGUGCUAAUAGUCGGAAG [Fam3.1 aminoacylation ribozyme variant] | 11 | – | 3.96 | –
57 | AUACACCUAGGUCGUCGGGUG [Fam2.2 aminoacylation ribozyme variant] | 6.55 | 2.55 | – | –

Source: the supplement of paper PMC9233669
